# Measured values from article PMC3777854 (Journal of clinical pharmacology, 2013).
# Entries after “also recorded” stand apart in the source; their conditions may differ.
# Assays:
# [1] = Safety assessments: adverse events and laboratory abnormalities; format: in vivo, human
# [2] = tested on: CYP3A; assay: Effect of ketoconazole on brentuximab vedotin; format: in vivo, human; conditions: geometric mean (%CV); for ADC Cmax: serum, n=16
# [3] = tested on: CYP3A; assay: Effect of brentuximab vedotin on midazolam PK; conditions: brentuximab vedotin 1.8 mg/kg; midazolam as probe substrate
# [4] = tested on: CYP3A; assay: Effect of rifampin on brentuximab vedotin; format: in vivo, human; conditions: brentuximab vedotin 1.8 mg/kg alone, geometric mean (%CV), n=11
# [5] = tested on: relapsed/refractory systemic ALCL; conditions: 1.8 mg/kg IV every 3 weeks for up to 16 cycles; cited from earlier work
# [6] = tested on: antitherapeutic antibodies (ATA); assay: Antitherapeutic antibodies; format: in vivo, human
substance,measurement,setting,value
brentuximab vedotin: ADC directed to human CD30: MMAE conjugated to the anti-CD30 antibody cAC10 through a protease-cleavable linker,Adverse events: Any event,"[1]; Ket arm, both cycles (n = 19)",19 (100) n (%)
same,Adverse events: Diarrhea,"[1]; Ket arm, both cycles (n = 19)",6 (32) n (%)
same,Adverse events: Fatigue,"[1]; Ket arm, both cycles (n = 19)",8 (42) n (%)
same,Adverse events: Headache,"[1]; Ket arm, both cycles (n = 19)",4 (21) n (%)
same,Adverse events: Nausea,"[1]; Ket arm, both cycles (n = 19)",9 (47) n (%)
same,Adverse events: Neutropenia,"[1]; Ket arm, both cycles (n = 19)",3 (16) n (%)
same,Adverse events: Pruritis,"[1]; Ket arm, both cycles (n = 19)",4 (21) n (%)
same,Adverse events: Pyrexia,"[1]; Ket arm, both cycles (n = 19)",7 (37) n (%)
same,Adverse events: Vomiting,"[1]; Ket arm, both cycles (n = 19)",6 (32) n (%)
same,Adverse events: Any event,"[1]; Ket arm, post-ket (N = 19)",16 (84) n (%)
same,Adverse events: Diarrhea,"[1]; Ket arm, post-ket (N = 19)",6 (32) n (%)
same,Adverse events: Fatigue,"[1]; Ket arm, post-ket (N = 19)",5 (26) n (%)
same,Adverse events: Headache,"[1]; Ket arm, post-ket (N = 19)",4 (21) n (%)
same,Adverse events: Nausea,"[1]; Ket arm, post-ket (N = 19)",5 (26) n (%)
same,Adverse events: Neutropenia,"[1]; Ket arm, post-ket (N = 19)",3 (16) n (%)
same,Adverse events: Pruritis,"[1]; Ket arm, post-ket (N = 19)",3 (16) n (%)
same,Adverse events: Pyrexia,"[1]; Ket arm, post-ket (N = 19)",2 (11) n (%)
same,Adverse events: Vomiting,"[1]; Ket arm, post-ket (N = 19)",6 (32) n (%)
same,Adverse events: Any event,"[1]; Ket arm, pre-ket (N = 19)",16 (84) n (%)
same,Adverse events: Diarrhea,"[1]; Ket arm, pre-ket (N = 19)",1 (5) n (%)
same,Adverse events: Fatigue,"[1]; Ket arm, pre-ket (N = 19)",4 (21) n (%)
same,Adverse events: Headache,"[1]; Ket arm, pre-ket (N = 19)",0 n (%)
same,Adverse events: Nausea,"[1]; Ket arm, pre-ket (N = 19)",5 (26) n (%)
same,Adverse events: Neutropenia,"[1]; Ket arm, pre-ket (N = 19)",0 n (%)
same,Adverse events: Pruritis,"[1]; Ket arm, pre-ket (N = 19)",1 (5) n (%)
same,Adverse events: Pyrexia,"[1]; Ket arm, pre-ket (N = 19)",6 (32) n (%)
same,Adverse events: Vomiting,"[1]; Ket arm, pre-ket (N = 19)",3 (16) n (%)
same,Adverse events: Any event,"[1]; Mid arm, both cycles (n = 16)",14 (88) n (%)
same,Adverse events: Diarrhea,"[1]; Mid arm, both cycles (n = 16)",3 (19) n (%)
same,Adverse events: Fatigue,"[1]; Mid arm, both cycles (n = 16)",3 (19) n (%)
same,Adverse events: Headache,"[1]; Mid arm, both cycles (n = 16)",4 (25) n (%)
same,Adverse events: Nausea,"[1]; Mid arm, both cycles (n = 16)",2 (13) n (%)
same,Adverse events: Neutropenia,"[1]; Mid arm, both cycles (n = 16)",1 (6) n (%)
same,Adverse events: Pruritis,"[1]; Mid arm, both cycles (n = 16)",1 (6) n (%)
same,Adverse events: Pyrexia,"[1]; Mid arm, both cycles (n = 16)",0 n (%)
same,Adverse events: Vomiting,"[1]; Mid arm, both cycles (n = 16)",2 (13) n (%)
same,Adverse events: Any event,"[1]; Rif arm, Cycle 1 (N = 21)",18 (86) n (%)
same,Adverse events: Diarrhea,"[1]; Rif arm, Cycle 1 (N = 21)",2 (10) n (%)
same,Adverse events: Fatigue,"[1]; Rif arm, Cycle 1 (N = 21)",1 (5) n (%)
same,Adverse events: Headache,"[1]; Rif arm, Cycle 1 (N = 21)",3 (14) n (%)
same,Adverse events: Nausea,"[1]; Rif arm, Cycle 1 (N = 21)",6 (29) n (%)
same,Adverse events: Neutropenia,"[1]; Rif arm, Cycle 1 (N = 21)",6 (29) n (%)
same,Adverse events: Pruritis,"[1]; Rif arm, Cycle 1 (N = 21)",3 (14) n (%)
same,Adverse events: Pyrexia,"[1]; Rif arm, Cycle 1 (N = 21)",6 (29) n (%)
same,Adverse events: Vomiting,"[1]; Rif arm, Cycle 1 (N = 21)",2 (10) n (%)
same,Adverse events: Any event,"[1]; Rif arm, Cycle 2 (N = 20)",17 (85) n (%)
same,Adverse events: Diarrhea,"[1]; Rif arm, Cycle 2 (N = 20)",3 (15) n (%)
same,Adverse events: Fatigue,"[1]; Rif arm, Cycle 2 (N = 20)",4 (20) n (%)
same,Adverse events: Headache,"[1]; Rif arm, Cycle 2 (N = 20)",2 (10) n (%)
same,Adverse events: Nausea,"[1]; Rif arm, Cycle 2 (N = 20)",2 (10) n (%)
same,Adverse events: Neutropenia,"[1]; Rif arm, Cycle 2 (N = 20)",5 (25) n (%)
same,Adverse events: Pruritis,"[1]; Rif arm, Cycle 2 (N = 20)",2 (10) n (%)
same,Adverse events: Pyrexia,"[1]; Rif arm, Cycle 2 (N = 20)",0 n (%)
same,Adverse events: Vomiting,"[1]; Rif arm, Cycle 2 (N = 20)",1 (5) n (%)
same,Adverse events: Any event,"[1]; Rif arm, both cycles (n = 21)",20 (95) n (%)
same,Adverse events: Diarrhea,"[1]; Rif arm, both cycles (n = 21)",4 (19) n (%)
same,Adverse events: Fatigue,"[1]; Rif arm, both cycles (n = 21)",5 (24) n (%)
same,Adverse events: Headache,"[1]; Rif arm, both cycles (n = 21)",5 (24) n (%)
same,Adverse events: Nausea,"[1]; Rif arm, both cycles (n = 21)",6 (29) n (%)
same,Adverse events: Neutropenia,"[1]; Rif arm, both cycles (n = 21)",7 (33) n (%)
same,Adverse events: Pruritis,"[1]; Rif arm, both cycles (n = 21)",4 (19) n (%)
same,Adverse events: Pyrexia,"[1]; Rif arm, both cycles (n = 21)",6 (29) n (%)
same,Adverse events: Vomiting,"[1]; Rif arm, both cycles (n = 21)",2 (10 n (%)
same,Adverse events: Any event,"[1]; Total, both cycles (N = 56)",53 (95) n (%)
same,Adverse events: Diarrhea,"[1]; Total, both cycles (N = 56)",13 (23) n (%)
same,Adverse events: Fatigue,"[1]; Total, both cycles (N = 56)",16 (29) n (%)
same,Adverse events: Headache,"[1]; Total, both cycles (N = 56)",13 (23) n (%)
same,Adverse events: Nausea,"[1]; Total, both cycles (N = 56)",17 (30) n (%)
same,Adverse events: Neutropenia,"[1]; Total, both cycles (N = 56)",11 (20) n (%)
same,Adverse events: Pruritis,"[1]; Total, both cycles (N = 56)",9 (16) n (%)
same,Adverse events: Pyrexia,"[1]; Total, both cycles (N = 56)",13 (23) n (%)
same,Adverse events: Vomiting,"[1]; Total, both cycles (N = 56)",10 (18) n (%)
same,treatment-emergent peripheral neuropathy,"[1]; all patients (N = 56), 2 treatment cycles",18%
same,"low hemoglobin, change from Grade 1 or 2 to ≥ Grade 3","[1]; all patients, 5 patients",9%
same,"low lymphocyte counts, change from Grade 1 or 2 to ≥ Grade 3","[1]; all patients, 5 patients",9%
same,"low platelet counts, change from Grade 1 or 2 to ≥ Grade 3","[1]; all patients, 5 patients",9%
same,"elevated ALT, change from Grade 1 or 2 to ≥ Grade 3","[1]; all patients, 6 patients",11%
same,"low white blood cell count, change from Grade 1 or 2 to ≥ Grade 3","[1]; all patients, 7 patients",13%
same,peripheral neuropathy events,"[1]; ketoconazole arm, after ketoconazole, 1 patient",5%
same,elevated AST (adverse event),"[1]; ketoconazole arm, after ketoconazole, 2 patients",11%
same,incidence of adverse events ≥ Grade 3,"[1]; ketoconazole arm, before ketoconazole dosing, 4 patients",21%
same,elevated AST (adverse event),"[1]; ketoconazole arm, before ketoconazole, 1 patient",5%
same,peripheral neuropathy events,"[1]; ketoconazole arm, before ketoconazole, 2 patients",11%
same,elevated ALT (adverse event),"[1]; ketoconazole arm, both before and after ketoconazole, 1 patient",5%
same,ADC t1/2,"[2]; brentuximab vedotin 1.2 mg/kg alone, n=11",5.70 (33) d
same,ADC Cmax,[2]; brentuximab vedotin 1.2 mg/kg alone,22.57 (23) μg/mL
same,ADC Cmax,[2]; brentuximab vedotin 1.2 mg/kg with ketoconazole,22.38 (70) μg/mL
same,inhibition or induction of CYP3A in humans (conclusion),[3],neither inhibitors nor inducers of CYP3A; also recorded: neither inhibit nor induce CYP3A
same,ADC t1/2,[4],5.87 (66) d
same,ADC Cmax,[4]; serum,36.74 (34) μg/mL
same,objective response rate,[5],86%
same,patients with at least 1 positive postbaseline ATA result,[6]; PK-evaluable patients in the ketoconazole arm,8 of 16
same,patients with at least 1 positive postbaseline ATA result,[6]; PK-evaluable patients in the rifampin arm,Five of 14
same,patients free of confirmed ATA at baseline but positive at one or both postbaseline timepoints,[6]; all patients,Eighteen
same,titers of all confirmed positive ATA results,[6]; with one exception (one patient 3125 prior to second dose),≤ 125
